Consider one protein from publication PMC9318811, “PbUGT72AJ2-Mediated Glycosylation Plays an Important Role in Lignin Formation and Stone Cell Development in Pears (Pyrus bretschneideri)” (International Journal of Molecular Sciences, 2022).

Substrate in data set [1]: COc1cc(/C=C/CO)cc(OC)c1O
The data set can be described thus: HPLC of glucoside product, double reciprocal plot. In kind it is biochemical, Pyrus x bretschneideri. The note with it: 2.5 mM UDP-glucose, 50 mM MgSO4, 200 mM KCl, 100 mM PBS pH 7.2–7.4, 35 °C, 0.1% β-mercaptoethanol, pH 7.0. The source says: (§1) HPLC of glucoside product, double reciprocal plot on PbUGT72AJ2

Substrate in data set [2]: COc1cc(/C=C/CO)ccc1O
The data set can be described thus: HPLC of glucoside product, double reciprocal plot. The settings on record: 2.5 mM UDP-glucose, 50 mM MgSO4, 200 mM KCl, 100 mM PBS pH 7.2–7.4, 35 °C, 0.1% β-mercaptoethanol, pH 7.0. In kind it is biochemical, Pyrus x bretschneideri.
Description: as §1

B1: PbUGT72AJ2 (Pyrus x bretschneideri) (protein)
chain: MSSKPHAAILCSPGLGHLIPSLELAKRLVTHRNFTVTIFAIPSPTSKTESELLKAAATPKFFDIIELPPPDISGCVGPNVAVVTLLAVMMREVRPAFRSAILGMEYSLRPTVLIVDLFSTESLSIGDELGIPKYVYVASTAWLVALTVYVPVFDREMEGEYVDQTEPLRIPGCKPVQPDDVVDPMLDRTDQQYLEYVRIGTNFPKSDGILMNTWEDLEHKTIDALRDEGLLGRVAKVPIYPIGPLTRSVQSAGSTSTGLREEGLFNWLDKQPCESVIFVSLGSGGTVSFEQMTEMAWGLELSKQRFIWVVRPPAKSADAAYFTSGNRDDDPSTYLPKGFLTRTHDVGLVVHLWAPQVDILSHPSIGGFWSHCGWNSSLESITNEVPMIVWPLHAEQRINATMLTEELGVAVRSKVLPLKKVVDREEIKEMVRKIMVDKDGQAIRGRVKELKLSAAKAWSVGGSSYNAISQISSGNQRKC
In the case of B1, in data set [1], the Michaelis-Menten constant (Km) (in general, the substrate concentration at which the rate is half of its maximum) came to 144.13 ± 22.31 µM; the maximal velocity (Vmax) (as a rule, the rate approached at saturating substrate) turned out to be 3.32 µM/min/mg; the kcat (commonly the maximal rate divided by the concentration of active sites) was determined as 0.44 ± 0.03 s⁻¹; the kcat/Km (usually the second-order rate constant that governs catalysis at low substrate concentration) was 3050 ± 250 M⁻¹ s⁻¹. In addition, in data set [2], the Michaelis-Menten constant (Km) came to 117.83 ± 7.94 µM, the maximum rate (Vmax) was 4.23 µM/min/mg, the kcat turned out to be 0.55 ± 0.02 s⁻¹ and the catalytic efficiency (kcat/Km) amounted to 4670 ± 130 M⁻¹ s⁻¹.
